We go through eight molecules from PMC7336386, “Methylation of MdMYB1 locus mediated by RdDM pathway regulates anthocyanin biosynthesis in apple”.

T1: MdAGO4-1 without PAZ domain (Malus domestica? (apple), UniProt A0A498JG28 46-274+435-911, internal_change)
T1 sequence: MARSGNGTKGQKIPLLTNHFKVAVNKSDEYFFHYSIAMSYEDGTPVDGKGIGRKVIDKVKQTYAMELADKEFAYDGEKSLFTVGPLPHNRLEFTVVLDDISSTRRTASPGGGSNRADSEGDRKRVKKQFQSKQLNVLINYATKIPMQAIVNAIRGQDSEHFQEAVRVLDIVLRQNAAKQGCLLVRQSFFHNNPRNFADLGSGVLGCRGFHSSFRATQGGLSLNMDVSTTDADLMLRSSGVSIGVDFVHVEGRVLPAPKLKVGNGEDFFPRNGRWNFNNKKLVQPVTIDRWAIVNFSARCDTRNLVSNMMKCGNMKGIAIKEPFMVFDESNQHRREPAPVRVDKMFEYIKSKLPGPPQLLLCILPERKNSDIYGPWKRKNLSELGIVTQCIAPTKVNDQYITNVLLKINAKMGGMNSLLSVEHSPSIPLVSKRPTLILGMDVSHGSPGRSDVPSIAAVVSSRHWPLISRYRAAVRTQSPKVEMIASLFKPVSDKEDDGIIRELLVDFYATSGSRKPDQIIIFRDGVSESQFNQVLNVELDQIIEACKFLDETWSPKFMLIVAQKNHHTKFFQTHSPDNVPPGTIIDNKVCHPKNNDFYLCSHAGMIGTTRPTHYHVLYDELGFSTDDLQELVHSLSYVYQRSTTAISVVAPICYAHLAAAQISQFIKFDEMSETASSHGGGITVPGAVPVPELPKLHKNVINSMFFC

T2: MdAGO4-1 (Malus domestica? (apple), UniProt A0A498JG28 46-911)
T2 sequence: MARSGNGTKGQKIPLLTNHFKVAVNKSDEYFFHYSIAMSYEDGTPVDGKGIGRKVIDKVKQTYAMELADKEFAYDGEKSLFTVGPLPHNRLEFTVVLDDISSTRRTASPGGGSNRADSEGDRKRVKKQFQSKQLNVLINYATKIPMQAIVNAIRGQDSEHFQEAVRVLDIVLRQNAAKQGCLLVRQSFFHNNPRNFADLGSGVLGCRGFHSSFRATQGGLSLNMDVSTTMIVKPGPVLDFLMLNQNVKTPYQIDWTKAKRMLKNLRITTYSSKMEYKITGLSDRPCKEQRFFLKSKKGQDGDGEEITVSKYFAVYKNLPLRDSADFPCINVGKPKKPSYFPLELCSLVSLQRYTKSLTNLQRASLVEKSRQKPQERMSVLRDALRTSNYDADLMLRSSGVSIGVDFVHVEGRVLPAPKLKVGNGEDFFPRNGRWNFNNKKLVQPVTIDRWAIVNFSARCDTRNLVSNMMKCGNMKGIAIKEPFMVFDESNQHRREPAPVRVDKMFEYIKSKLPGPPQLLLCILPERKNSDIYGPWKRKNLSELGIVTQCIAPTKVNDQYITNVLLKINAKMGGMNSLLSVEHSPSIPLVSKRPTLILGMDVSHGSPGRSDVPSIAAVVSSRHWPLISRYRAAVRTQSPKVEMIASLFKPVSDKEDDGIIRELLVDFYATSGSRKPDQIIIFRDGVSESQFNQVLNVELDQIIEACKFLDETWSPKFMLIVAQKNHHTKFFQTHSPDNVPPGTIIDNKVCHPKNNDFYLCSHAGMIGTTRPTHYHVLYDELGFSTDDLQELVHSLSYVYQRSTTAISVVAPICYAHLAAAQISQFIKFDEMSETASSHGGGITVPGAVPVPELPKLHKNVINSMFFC

B1: MdMYB1 probe2 (dsDNA)
DNA 1: TGTCAGTGTTTGCTTCTGTGGATATCAGACATGCACGTCACTGGCCTT
DNA 2: AAGGCCAGTGACGTGCATGTCTGATATCCACAGAAGCAAACACTGACA
B2: 2-m1 (probe2 without m1 region) (dsDNA)
DNA 1: TGCTTCTGTGGATATCAGACATGCACGTCACTGGCCTT
DNA 2: AAGGCCAGTGACGTGCATGTCTGATATCCACAGAAGCA
B3: 2-m4 (dsDNA)
DNA 1: TGTCAGTGTTTGCTTCTGTGGATATCAGACCTGGCCTT
DNA 2: AAGGCCAGGTCTGATATCCACAGAAGCAAACACTGACA
B4: 2-m5 (dsDNA)
DNA 1: TGTCAGTGTTTGCTTCTGTGGATATCAGACATGCACGTCA
DNA 2: TGACGTGCATGTCTGATATCCACAGAAGCAAACACTGACA
B5: 2-m2 (dsDNA)
DNA 1: TGTCAGTGTTGATATCAGACATGCACGTCACTGGCCTT
DNA 2: AAGGCCAGTGACGTGCATGTCTGATATCAACACTGACA
B6: 2-m3 (m3 region … not intact) (dsDNA)
DNA 1: TGTCAGTGTTTGCTTCTGTGATGCACGTCACTGGCCTT
DNA 2: AAGGCCAGTGACGTGCATCACAGAAGCAAACACTGACA
B7: MdGST probe (dsDNA)
DNA 1: TTTTTTATTAAATAAAAAAAGATATCATGCGACAAACATTTATTAAATTG
DNA 2: CAATTTAATAAATGTTTGTCGCATGATATCTTTTTTTATTTAATAAAAAA
B8: MdFLS probe (dsDNA)
DNA 1: GTAAAGGGAGTGTGACCATAATATCAGATACACAAACGTCCAAAGCCC
DNA 2: GGGCTTTGGACGTTTGTGTATCTGATATTATGGTCACACTCCCTTTAC

For one data set, the target named is T1, MdAGO4-1 without PAZ domain. Put plainly: EMSA; LightShift Chemiluminescent EMSA Kit (Thermo); buffer, salt, pH and temperature not stated. Particulars: protein: recombinant. (In general: In EMSA bound probe runs differently from free probe, usually more slowly.)
In the case of B1, the binding result is recorded as “binds”.

In another data set the target is T2, MdAGO4-1. The data set is described as above. Particulars: protein: recombinant; tags: His (pET32a).
As for B2, the binding result is recorded as “binds”.

With B1, the binding result was “binds”.

B3: the binding result is given as “binds”.

Take B4: the binding result is recorded as “binds”.

Consider B5, for which the binding result is “binds”.

As to B6, the binding result is reported as “no binding”.

The same data set, now with this note: protein: recombinant; tags: His (pET32a); blunt.
Turning to B7, the binding result is reported as “no binding”.

B8: the binding result was “binds”.
